Holding throughout (format): cell-based
Assay [1] relates to A549 ALK+ cells. The assay is described as follows: MTT viability and bright field microscopy of A549 ALK+ cells with CER T cells and ALK inhibitor. The conditions noted are these: for in vitro growth/viability of A549 ALK+ cells (MTT): Alectinib or Crizotinib 250 nM-10 μM, E:T 2:1 and 5:1. The source says: An […] translocation was introduced into A549 cells. […] CER104 has a polypeptide sequence set forth in SEQ ID NO:133 and comprises a Tim4 binding domain, Tim4 transmembrane domain, and an engulfment signaling domain comprising a primary engulfment signaling domain comprising a TLR8 signaling domain and a secondary engulfment signaling domain comprising a DAP12 signaling domain. CER122 has a polypeptide sequence set forth in SEQ ID NO:149 and comprises a Tim4 binding domain, Tim4 transmembrane domain, and an engulfment signaling domain comprising a primary engulfment signaling domain comprising a TLR2 signaling domain and a secondary engulfment signaling domain comprising a DAP12 signaling domain. Effector:target (E:T) cell ratio for co-culture was 2:1 or 5:1. […] Cell viability experiments were performed in triplicates and presented as % of control. Best-fit curves were generated from raw data using linear regression models.
CER21−, CER108−, CER104−, and CER129-transduced CD4+ T cells were tested for their ability to kill A549 ALK+ cells in the presence of ALK inhibitor. CD4+ T cells were transduced with a lentiviral vector comprising a CER21, CER108, CER104, CER129, CER27, CER120, CER122, CER123, CER124, or CER126 nucleic acid. […] After 48 hours of co-culture, T cells were washed away and the number of viable A549 ALK+ cells was quantified using a calorimetric MTT assay (FIGS. 67A-B). Cell viability experiments were performed in triplicates and presented as % of control. Bright field microscopy images were also obtained from A549 ALK+co-culture experiments. […] Arrow indicates cluster of dead A549 ALK+ cells surrounded by phagocytic CER104+ T cells. […]

Assay [2] deals with H1975 lung adenocarcinoma cells. The assay is described as follows: LDH assay, H1975 cells, 48 hours co-culture with 1 μM Osimeritinib. The conditions noted are these: E:T 1:1, 48 hours, CD4+ T cells. The source says:
CER30 comprises a Tim4 binding domain, Tim4 transmembrane domain, and an engulfment signaling domain comprising a primary engulfment signaling domain comprising a TRAF2 signaling domain. CER30 has a polypeptide sequence as set forth in SEQ ID NO:96. CER110 has a polypeptide sequence of SEQ ID NO:125 and comprises a Tim4 binding domain, Tim4 transmembrane domain, and an engulfment signaling domain comprising a primary engulfment signaling domain comprising a TRAF6 signaling domain and a secondary engulfment signaling domain comprising a DAP12 signaling domain. CER112 has a polypeptide sequence of SEQ ID NO:128 and comprises a Tim4 binding domain, Tim4 transmembrane domain, and an engulfment signaling domain comprising a primary engulfment signaling domain comprising a TRAF6 signaling domain and a secondary engulfment signaling domain comprising a NFAM1 signaling domain. CER127 has a polypeptide sequence of SEQ ID NO:175 and comprises a Tim4 binding domain, Tim4 transmembrane domain, and an engulfment signaling domain comprising a primary engulfment signaling domain comprising a TRAF2 signaling domain and a secondary engulfment signaling domain comprising a TLR2 signaling domain. H1975 cells are more resistant to EGFR inhibitors, so Osimeritinib was used at slightly higher concentration. H1975 lung adenocarcinoma cells harboring an EGFR mutation were co-cultured with CER-expressing or mock-transduced (vector only) CD4+ T cells with 1 μM of Osimeritinib. After 48 hours of co-culture at a 1:1 effector:target cell ratio, T cells were washed away, and the number of viable H1975 cells was quantified using a calorimetric LDH assay (FIG. 57). Cell viability experiments were performed in triplicate and presented as % of control.

In assay [3] the test system is ALK+A549 cells. The assay is described as follows: Phagocytosis of ALK inhibitor treated A549 ALK+ cells by CER T cells (fluorescent microscopy). The conditions noted are these: 12 hours; for phagocytosis of A549 cells: CD4 T cells. From the text: An ELM4-ALK translocation was introduced into A549 cells. […] CD4 T cells are modified to express CER104 or CER117 and labeled with CELLTRACE Violet. CER117 has a polypeptide sequence set forth in SEQ ID NO:144 and comprises a Tim4 binding domain, a Tim4 transmembrane domain, and an engulfment signaling domain comprising a primary engulfment signaling domain comprising a TLR8 signaling domain and a secondary engulfment signaling domain comprising a TRAF6 signaling domain. The ALK+A549 cells were then co-cultured with CER104- or CER117-expressing CD4+ T cells or Mock-transduced (vector only) T cells for 12 hours and images were obtained by fluorescent microscopy at 40× magnification (FIGS. 62A-E). White arrows indicate exemplary phagocytic events (pH rodo red cell targets within CELLTRACE Violet labeled CD4+ T cells).
CER123- and CER126-transduced CD4+ and CD8+ T cells were labeled with CELLTRACE Violet and co-cultured with the A549 ALK-positive cells. Co-cultured cells were imaged by fluorescent microscopy at 63× magnification after 12 hours (FIGS. 63A-F). White arrows indicate exemplary phagocytic events (pHrodo red targets within CELLTRACE Violet-labeled CD4 T cells).
Phagocytosis of Alectinib-treated ALK+A549 cells by CER-expressing T cells was also quantified. […] Bar graph in FIG. 64A represents quantification of percentage phagocytosis calculated as ((number of phagocytic target events)/(total number of effector cells))*100. Events were calculated from fluorescent 3×3 stitched images at 40×resolution after 12 hours of co-culture. Bar graph in FIG. 64B represents quantification of adjusted phagocytic index calculated as (median area ratio of target events in effector cells*phagocytosis). Events calculated from fluorescent 3×3 stitched images at 40×resolution after 12 hours of co-culture.
CER21−, CER27−, CER30−, CER108−, CER110−, CER112−, CER120−, CER123−, CER124−, CER126−, CER127−, or CER104-transduced CD4+ T cells were co-cultured with Alectinib-treated A549 cells at a 1:1 ratio for 12 hours. Phagocytic events were calculated from 3×3 stitched fluorescent microscopy images at 40X resolution. […] Images were obtained after 12 hours of co-culture. Yellow triangles indicate exemplary phagocytic events (pHrodo red targets within CELLTRACE violet labeled CD4+ T cells).
A time course study of phagocytic uptake of tumor cells by CER-transduced T cells was performed. CD4+ T cells were transduced with a lentiviral vector comprising CER122 nucleic acid. Mock-transduced (vector only) CD4+ T cells were used as control. CER122-transduced T cells were labeled with CELLTRACE violet and co-cultured with pHrodo red labeled A549 ALK+ lung adenocarcinoma cells. Fluorescent microscopy images were obtained at 4, 8, and 16 hours co-culture (FIG. 72C), and % phagocytosis (FIG. 72A) and phagocytic index (FIG. 72B) were calculated.

B1: CER104: Tim4 binding and transmembrane domains, TLR8 primary and DAP12 secondary signaling domains; SEQ ID NO:133 (protein)
chain: MSKGLLLLWLVTELWWLYLTPAASEDTIIGFLGQPVTLPCHYLSWSQSRNSMCWGKGSCPNSKCNAELLRTDGTRIISRKSTKYTLLGKVQFGEVSLTISNTNRGDSGVYCCRIEVPGWFNDVKKNVRLELRRATTTKKPTTTTRPTTTPYVTTTTPELLPTTVMTTSVLPTTTPPQTLATTAFSTAVTTCPSTTPGSFSQETTKGSAFTTESETLPASNHSQRSMMTISTDIAVLRPTGSNPGILPSTSQLTTQKTTLTTSESLQKTTKSHQINSRQTILIIACCVGFVLMVLLFLAFLHHLFYWDVWFIYNVCLAKVKGYRSLSTSQTFYDAYISYDTKDASVTDWVINELRYHLEESRDKNVLLCLEERDWDPGLAIIDNLMQSINQSKKTVFVLTKKYAKSWNFKTAFYLALQRLMDENMDVIIFILLEPVLQHSQYLRLRQRICKSSILQWPDNPKAEGLFWQTLRNVVLTENDSRYNNMYVDSIKQYYFLGRLVPRGRGAAEAATRKQRITETESPYQELQGQRSDVYSDLNTQRPYYK
modifications: CER104 protein
As to B1, the “bright field microscopy of A549 ALK+ co-culture” value in assay [1] (Alectinib 3.7 μM, 48 hours, vs mock-transduced T cells) is given as “cluster of dead A549 ALK+ cells surrounded by phagocytic CER104^+ T cells”. Besides, the “in vitro growth/viability of A549 ALK+ cells (MTT)” value in assay [1] (48 hours) and in assay [1] (72 hours) was “synergistically suppress in vitro growth of NSCLC cells harboring ALK rearrangements” throughout. In assay [2], the “killing of H1975 cells (LDH)” value is reported as “synergistic killing of H1975 lung adenocarcinoma cells upon EGFR inhibition”. Moreover, the “phagocytosis of A549 cells” value in assay [3] (1 μM Alectinib) and in assay [3] (1 μM Crizotinib) was “phagocytosed A549 cells” throughout.

B2: CER21: Tim4 binding and transmembrane domains, TLR8 signaling domain; SEQ ID NO:88 (protein)
chain: MSKGLLLLWLVTELWWLYLTPAASEDTIIGFLGQPVTLPCHYLSWSQSRNSMCWGKGSCPNSKCNAELLRTDGTRIISRKSTKYTLLGKVQFGEVSLTISNTNRGDSGVYCCRIEVPGWFNDVKKNVRLELRRATTTKKPTTTTRPTTTPYVTTTTPELLPTTVMTTSVLPTTTPPQTLATTAFSTAVTTCPSTTPGSFSQETTKGSAFTTESETLPASNHSQRSMMTISTDIAVLRPTGSNPGILPSTSQLTTQKTTLTTSESLQKTTKSHQINSRQTILIIACCVGFVLMVLLFLAFLHHLFYWDVWFIYNVCLAKVKGYRSLSTSQTFYDAYISYDTKDASVTDWVINELRYHLEESRDKNVLLCLEERDWDPGLAIIDNLMQSINQSKKTVFVLTKKYAKSWNFKTAFYLALQRLMDENMDVIIFILLEPVLQHSQYLRLRQRICKSSILQWPDNPKAEGLFWQTLRNVVLTENDSRYNNMYVDSIKQY
modifications: CER21 chimeric engulfment receptor
For B2, the “killing of H1975 cells (LDH)” value in assay [2] was “synergistic killing of H1975 lung adenocarcinoma cells upon EGFR inhibition”.

B3: CER123: Tim4 binding and transmembrane domains, TLR2 primary and TRAF6 secondary signaling domains; SEQ ID NO:150 (protein)
chain: MSKGLLLLWLVTELWWLYLTPAASEDTIIGFLGQPVTLPCHYLSWSQSRNSMCWGKGSCPNSKCNAELLRTDGTRIISRKSTKYTLLGKVQFGEVSLTISNTNRGDSGVYCCRIEVPGWFNDVKKNVRLELRRATTTKKPTTTTRPTTTPYVTTTTPELLPTTVMTTSVLPTTTPPQTLATTAFSTAVTTCPSTTPGSFSQETTKGSAFTTESETLPASNHSQRSMMTISTDIAVLRPTGSNPGILPSTSQLTTQKTTLTTSESLQKTTKSHQINSRQTILIIACCVGFVLMVLLFLAFLHRFHGLWYMKMMWAWLQAKRKPRKAPSRNICYDAFVSYSERDAYWVENLMVQELENFNPPFKLCLHKRDFIPGKWIIDNIIDSIEKSHKTVFVLSENFVKSEWCKYELDFSHFRLFDENNDAAILILLEPIEKKAIPQRFCKLRKIMNTKTYLEWPMDEAQREGFWVNLRAAIKSMSLLNCENSCGSSQSESDCCVAMASSCSAVTKDDSVGGTASTGNLSSSFMEEIQGYDVEFDPPLESKYECPICLMALREAVQTPCGHRFCKACIIKSIRDAGHKCPVDNEILLENQLFPDNFAKREILSLMVKCPNEGCLHKMELRHLEDHQAHCEFALMDCPQCQRPFQKFHINIHILKDCPRRQVSCDNCAASMAFEDKEIHDQNCPLANVICEYCNTILIREQMPNHYDLDCPTAPIPCTFSTFGCHEKMQRNHLARHLQENTQSHMRMLA
modifications: CER123 protein
Take B3: in assay [2], the “killing of H1975 cells (LDH)” value was “synergistic killing of H1975 lung adenocarcinoma cells upon EGFR inhibition”. Besides, the “phagocytic elimination of ALK+A549 cells” value in assay [3] (2.5 μM Alectinib) is given as “phagocytic elimination of ALK+A549 cells”.
